Measurements published in doi:10.1101/2021.09.13.460021.

Tests used:
[1] = target: biotinylated histone H3K9me3 peptide; assay: pull-down + far-Western, overlay or dot blot
[2] = target: biotinylated unmodified histone H3 peptide; assay: pull-down + far-Western, overlay or dot blot

B1: GST tagged recombinant chromodomain (PfCD) of the chromodomain-containing protein PfCDP, wild type (domain or fragment)
chain: NEVFEVEKIIMARYKLNCKRKKNRKDENLDDFEFYIKWKNYDSDENTWEPFENLSPNLKGQARKVAL
[1]
  Kd: 38 nM
[2]
  Kd: 175 nM
